Laboratory results reported in PMC7866087, “Evaluation of Computationally Designed Peptides against TWEAK, a Cytokine of the Tumour Necrosis Factor Ligand Family” (International Journal of Molecular Sciences, 2021).

System: BRV5 cells, NIK expression
Test: Time-course RT-PCR of NIK (MAP4K4), BRV5
Assay type: cell-based, human
Conditions: TWEAK, 6 to 24 h
Text: The final aspect to consider in the characterization of BRV5 cells prior to the screening of peptides was to assess when the signalling pathway mediated by TWEAK-Fn14 will be at its peak of activity. To that end, we monitored the level of expression of the primary kinase NIK (MAP4K4) at different time points. It has been reported that transcriptional activation of Fn14 would be operated mainly by the NF-κB non-canonical pathway, through inducing the primary kinase NIK (MAP4K4) that phosphorylates IKKα [26]. Thus, we assessed the level of expression of NIK from 6 to 24 h after cells were treated with TWEAK in a time-course RT-PCR (Figure 2). […] From these experiments we concluded that TWEAK-Fn14 pathway is mainly activated at 6 h after treating cells, and thus we designed out experiments to check the inhibitory ability of the peptides at this specific time point.
Figure 2 NIK activation in brain metastatic cells. Metastatic cells were primed with TWEAK in a time-course RT-PCR experiment. […] Bars and error bars represent the average and standard deviation as calculated from three replicates respectively.

B1: tumour necrosis factor-like weak inducer of apoptosis (protein, UniProt O43508 94-249, looked up)
Tumor necrosis factor ligand …: SAPKGRKTRARRAIAAHYEVHPRPGQDGAQAGVDGTVSGWEEARINSSSPLRYNRQIGEFIVTRAGLYYLYCQVHFDEGKAVYLKLDLLVDGVLALRCLEEFSATAASSLGPQLRLCQVSGLLALRPGSSLRIRTLPWAHLKAAPFLTYFGLFQVH
- NIK expression: increased in TWEAK stimulated BRV5 cells after 6 h of treatment, decreasing at 12 h and partially recovered at 24 h
